In paper PMC10881024, “No evidence for a direct extracellular interaction between human Fc receptor–like 3 (MAIA) and the sperm ligand IZUMO1” (Science Advances, 2024):

Target: T1, human IZUMO1 entire ectodomain, biotinylated, rat Cd4 domains 3 and 4 tagged (bait construct) (human, UniProt Q8IYV9 22-285, enzymatically biotinylated (BirA) on the biotinylation target sequence)
T1 construct: IZUMO1, human, entire ectodomain, truncated at P285 of Q8IYV9; Monomer as expressed; also called IZUMO1 bait; biotinylated monomeric IZUMO1; source: HEK293-6E, transient transfection, cotransfected with secreted BirA; conditioned medium dialysed in PBS, or purified from spent medium on Ni-NTA (SAVEXIS); not shown: domains 3 and 4 of rat CD4, C-terminal, kept
Assay: SAVEXIS; purified monomeric biotinylated baits at 13.4 nM captured on streptavidin-coated plates 16 hours at 4°C; preys made multimeric by clustering biotinylated monomers around streptavidin-HRP, 4.4 nM, 1 hour at room temperature; HBS-T washes with desthiobiotin; tetramethylbenzidine, absorbance at 650 nm
Conditions: both partners purified

T1 sequence (Q8IYV9 22-285): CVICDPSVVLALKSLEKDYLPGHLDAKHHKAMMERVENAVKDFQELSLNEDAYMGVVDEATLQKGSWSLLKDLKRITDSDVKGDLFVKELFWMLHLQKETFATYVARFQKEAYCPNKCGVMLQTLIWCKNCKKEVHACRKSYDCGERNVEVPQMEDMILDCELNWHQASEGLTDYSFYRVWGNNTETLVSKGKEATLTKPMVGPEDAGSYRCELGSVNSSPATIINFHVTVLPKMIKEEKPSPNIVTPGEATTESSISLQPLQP

B1: human JUNO entire ectodomain, biotinylated, rat Cd4 domains 3 and 4 tagged (bait construct) (domain or fragment, UniProt A6ND01 20-231, looked up)
chain: GDELLNICMNAKHHKRVPSPEDKLYEECIPWKDNACCTLTTSWEAHLDVSPLYNFSLFHCGLLMPGCRKHFIQAICFYECSPNLGPWIQPVGSLGWEVAPSGQGERVVNVPLCQEDCEEWWEDCRMSYTCKSNWRGGWDWSQGKNRCPKGAQCLPFSHYFPTPADLCEKTWSNSFKASPERRNSGRCLQKWFEPAQGNPNVAVARLFASSAP
modifications: enzymatically biotinylated (BirA) on the biotinylation target sequence
notes: JUNO, human, entire ectodomain, truncated at P231 of A6ND01; also called JUNO bait; human JUNO (bait); source: HEK293-6E, transient transfection, cotransfected with secreted BirA; conditioned medium dialysed in PBS (AVEXIS), or purified from spent medium on Ni-NTA (SAVEXIS); not shown: domains 3 and 4 of rat CD4, C-terminal, kept
Does B1 bind?
Result: binds
